Measurements: publication PMC5612032

Molecular target: Amyloid-β peptide Aβ(1-42)
Test: NMR titration; 5 μM soluble pEAβ(3-42), 5% Aβ(1-42) fibrils added directly; decrease of the NMR signal of soluble pEAβ(3-42) within ca. 10 min; 10 mM sodium phosphate pH 7.4, 37 °C

decrease in NMR signal intensity of soluble pEAβ(3-42): 50%
stoichiometry N (pEAβ(3-42) : Aβ(1-42) in fibrils): 10
Substance: Pyroglutamate-modified amyloid-β pEAβ(3-42) (peptide)
